Data: patent US20260256936A1, “BIOACTIVE CONJUGATES, PREPARATION METHOD AND USE THEREOF” (priority 2023, published 2026)
Where two headings read alike, the source gives them in different places.

Columns and labels:
Assay in all cases: cell-based or functional assay
[1] = biological target: T1, B7H3 on B7H3-expressing cells (NCI-H358, NCI-H1048) (human, UniProt Q5ZPR3 29-534)
T1 sequence (looked up): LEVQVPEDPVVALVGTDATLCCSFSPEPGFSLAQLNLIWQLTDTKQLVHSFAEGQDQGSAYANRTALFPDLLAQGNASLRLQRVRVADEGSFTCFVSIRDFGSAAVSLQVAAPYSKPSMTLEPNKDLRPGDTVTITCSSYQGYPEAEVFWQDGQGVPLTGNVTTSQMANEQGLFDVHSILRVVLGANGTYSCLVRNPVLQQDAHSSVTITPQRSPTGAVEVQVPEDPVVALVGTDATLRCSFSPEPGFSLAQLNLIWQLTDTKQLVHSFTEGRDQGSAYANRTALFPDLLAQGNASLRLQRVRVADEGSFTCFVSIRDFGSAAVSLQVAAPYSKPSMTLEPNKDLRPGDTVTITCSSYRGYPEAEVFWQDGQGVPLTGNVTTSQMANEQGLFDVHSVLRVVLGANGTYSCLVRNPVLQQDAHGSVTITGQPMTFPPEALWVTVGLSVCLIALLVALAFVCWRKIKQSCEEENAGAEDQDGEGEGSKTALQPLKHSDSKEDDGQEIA

[2] = biological target: T2, CLL1 on CLL1-expressing cells (U937, HL60) (human, UniProt Q5QGZ9 1-265)
T2 sequence (looked up): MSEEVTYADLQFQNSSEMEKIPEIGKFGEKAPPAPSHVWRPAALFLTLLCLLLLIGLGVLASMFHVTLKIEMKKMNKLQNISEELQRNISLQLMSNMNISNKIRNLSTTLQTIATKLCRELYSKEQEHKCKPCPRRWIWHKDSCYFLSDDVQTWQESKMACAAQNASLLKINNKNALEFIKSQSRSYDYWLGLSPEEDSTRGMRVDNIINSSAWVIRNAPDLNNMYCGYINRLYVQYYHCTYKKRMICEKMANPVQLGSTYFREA

[3] = biological target: T2, CLL1 on CLL1-expressing cells (U937, …); remark: listed apart in the source
[4] = biological target: T2, CLL1 on CLL1-expressing cells (U937, …); remark: listed apart in the source
[5] = biological target: T2, CLL1 on CLL1-expressing cells (U937, …); remark: listed apart in the source

B1: ADC4-1 (antibody, human IgG1, kappa, V domains shown)
VH: QVQLVQSGAEVKKPGSSVKVSCKASGYTFTNYVMHWVRQAPGQGLEWMGYINPYNDDVKYNEKFKGRVTITADESTSTAYMELSSLRSEDTAVYYCARWGYYGSPLYYFDYWGQGTLVTVSS
VL: EIVLTQSPATLSLSPGERATLSCRASSRLIYMHWYQQKPGQAPRPLIYATSNLASGIPARFSGSGSGTDFTLTISSLEPEDFAVYYCQQWNSNPPTFGQGTKVEIKR
modifications: conjugator-linker-payload on cysteine thiols after TCEP reduction; positions not given
[1]
  EC50 (nM) direct cellular killing, NCI-H358: 0.1 nM
  EC50 (nM) direct cellular killing, NCI-H1048: 0.6 nM
  Emax (%) direct cellular killing, NCI-H358: 82.8%
  Emax (%) direct cellular killing, NCI-H1048: 83.6%

B2: ADC4-2 (antibody, human IgG1, kappa, V domains shown)
VH: QVQLVQSGAEVKKPGSSVKVSCKASGYTFTNYVMHWVRQAPGQGLEWMGYINPYNDDVKYNEKFKGRVTITADESTSTAYMELSSLRSEDTAVYYCARWGYYGSPLYYFDYWGQGTLVTVSS
VL: EIVLTQSPATLSLSPGERATLSCRASSRLIYMHWYQQKPGQAPRPLIYATSNLASGIPARFSGSGSGTDFTLTISSLEPEDFAVYYCQQWNSNPPTFGQGTKVEIKR
modifications: conjugator-linker-payload on cysteine thiols after TCEP reduction; positions not given
[1]
  EC50 (nM) direct cellular killing, NCI-H358: 0.1 nM
  Emax (%) direct cellular killing, NCI-H358: 81%
  Emax (%) direct cellular killing, NCI-H1048: 62%

B3: ADC4-3 (antibody, human IgG1, kappa, V domains shown)
VH: QVQLVQSGAEVKKPGSSVKVSCKASGYTFTNYVMHWVRQAPGQGLEWMGYINPYNDDVKYNEKFKGRVTITADESTSTAYMELSSLRSEDTAVYYCARWGYYGSPLYYFDYWGQGTLVTVSS
VL: EIVLTQSPATLSLSPGERATLSCRASSRLIYMHWYQQKPGQAPRPLIYATSNLASGIPARFSGSGSGTDFTLTISSLEPEDFAVYYCQQWNSNPPTFGQGTKVEIKR
modifications: conjugator-linker-payload on cysteine thiols after TCEP reduction; positions not given
[1]
  EC50 (nM) direct cellular killing, NCI-H358: 0.1 nM
  EC50 (nM) direct cellular killing, NCI-H1048: 1.6 nM
  Emax (%) direct cellular killing, NCI-H358: 79.9%
  Emax (%) direct cellular killing, NCI-H1048: 80%

B4: ADC3-2 (antibody, human IgG1, kappa, V domains shown)
VH: EVQLVQSGAEVKKPGASVKVSCKASGYSFTDYYMHWVRQAPGQGLEWIGRINPYAGAAFYSQNFKDRVTLTVDTSTSTAYLELSSLRSEDTAVYYCAIERGADLEGYAMDYWGQGTLVTVSS
VL: DIQMTQSPSSLSASVGDRVTITCRASQSVSTSSYNYMHWYQQKPGKPPKLLIKYASNLESGVPSRFSGSGSGTDFTLTISSLQPEDFATYYCQHSWEIPLTFGQGTKVEIKR
modifications: conjugator-linker-payload on cysteine thiols after TCEP reduction; positions not given
[2]
  EC50 (nM) direct cellular killing, HL60: 8.2 nM
  EC50 (nM) direct cellular killing, U937: 0.2 nM
  Emax (%) direct cellular killing, HL60: 55.9%

B5: ADC3-10 (antibody, human IgG1, kappa, V domains shown)
VH: EVQLVQSGAEVKKPGASVKVSCKASGYSFTDYYMHWVRQAPGQGLEWIGRINPYAGAAFYSQNFKDRVTLTVDTSTSTAYLELSSLRSEDTAVYYCAIERGADLEGYAMDYWGQGTLVTVSS
VL: DIQMTQSPSSLSASVGDRVTITCRASQSVSTSSYNYMHWYQQKPGKPPKLLIKYASNLESGVPSRFSGSGSGTDFTLTISSLQPEDFATYYCQHSWEIPLTFGQGTKVEIKR
modifications: conjugator-linker-payload on cysteine thiols after TCEP reduction; positions not given
[3]
  EC50 (nM) direct cellular killing, HL60: 1.2 nM
  EC50 (nM) direct cellular killing, U937: 0.7 nM
  Emax (%) direct cellular killing, HL60: 82.2%

B6: ADC3-9 (antibody, human IgG1, kappa, V domains shown)
VH: EVQLVQSGAEVKKPGASVKVSCKASGYSFTDYYMHWVRQAPGQGLEWIGRINPYAGAAFYSQNFKDRVTLTVDTSTSTAYLELSSLRSEDTAVYYCAIERGADLEGYAMDYWGQGTLVTVSS
VL: DIQMTQSPSSLSASVGDRVTITCRASQSVSTSSYNYMHWYQQKPGKPPKLLIKYASNLESGVPSRFSGSGSGTDFTLTISSLQPEDFATYYCQHSWEIPLTFGQGTKVEIKR
modifications: conjugator-linker-payload on cysteine thiols after TCEP reduction; positions not given
[4]
  EC50 (nM) direct cellular killing, HL60: 1.7 nM
  EC50 (nM) direct cellular killing, U937: 0.6 nM

B7: ADC3-6 (antibody, human IgG1, kappa, V domains shown)
VH: EVQLVQSGAEVKKPGASVKVSCKASGYSFTDYYMHWVRQAPGQGLEWIGRINPYAGAAFYSQNFKDRVTLTVDTSTSTAYLELSSLRSEDTAVYYCAIERGADLEGYAMDYWGQGTLVTVSS
VL: DIQMTQSPSSLSASVGDRVTITCRASQSVSTSSYNYMHWYQQKPGKPPKLLIKYASNLESGVPSRFSGSGSGTDFTLTISSLQPEDFATYYCQHSWEIPLTFGQGTKVEIKR
modifications: conjugator-linker-payload on cysteine thiols after TCEP reduction; positions not given
[5]
  EC50 (nM) direct cellular killing, HL60: 0.4 nM
  EC50 (nM) direct cellular killing, U937: 0.6 nM
